The values below come from article PMC11564096, “Structural and mechanistic insights into Streptococcus pneumoniae NADPH oxidase” (Nature Structural & Molecular Biology, 2024).

Substrate in the data set: NC(=O)C1=CN([C@@H]2O[C@H](COP(=O)(O)OP(=O)(O)OC[C@H]3O[C@@H](n4cnc5c(N)ncnc54)[C@H](O)[C@@H]3O)[C@@H](O)[C@H]2O)C=CC1
Description: purified protein. Particulars: 100 µM bovine cytochrome c, 0.1 µM SpNOX, 1 µM FAD, 50 mM Tris pH 7.0, 250 mM NaCl, room temperature, aerobic. Type of data set: biochemical, Streptococcus pneumoniae.

B1: SpNOX (Streptococcus pneumoniae NOX) (Streptococcus pneumoniae R6) (protein)
chain: EFSMKSVKGLLFIIASFILTLLTWMNTSPQFMIPGLALTSLSLTFILATRLPLLESWFHSLEKVYTVHKFTAFLSIILLIFHNFSMGGLWGSRLAAQFGNLAIYIFASIILVAYLGKYIQYEAWRWIHRLVYLAYILGLFHIYMIMGNRLLTFNLLSFLVGSYALLGLLAGFYIIFLYQKISFPYLGKITHLKRLNHDTREIQIHLSRPFNYQSGQFAFLKIFQEGFESAPHPFSISGGHGQTLYFTVKTSGDHTKNIYDNLQAGSKVTLDRAYGHMIIEEGRENQVWIAGGIGITPFISYIREHPILDKQVHFYYSFRGDENAVYLDLLRNYAQKNPNFELHLIDSTKDGYLNFEQKEVPEHATVYMCGPISMMKALAKQIKKQNPKTELIYEGFKFK
notes: residues 2-400, N-terminal 6xHis-PreScission tag cleaved, E. coli C41(DE3), LMNG micelles, monomer, 46 kDa, two b-type hemes and FAD
What is called Km is the concentration of substrate that gives half-maximal velocity. For orientation: kcat means the maximal rate divided by the concentration of active sites. For the protein B1, the Km was 3.41 µM and the kcat was 3.33 s⁻¹.
